The supplement of paper PMC9170038

What was measured:
MS2 coat protein [1] = test: apparent KD of MS2 coat protein, switch ON state; designed switch direction (-1 OFF switch, 1 ON switch): 1; higher = weaker reporter binding; details: FMN input: 0 or 200 uM; Eterna round: R93 (includes R88 designs)
Outline: (§1)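 Designed RNA switches were transcribed on-chip from Illumina sequencing clusters. SNAP-549-labelled MS2 coat protein was titrated onto them in twofold steps from 0.7 or 1.5 nM to 3 µM in 100 mM Tris-HCl pH 7.5, 80 mM KCl, 4 mM MgCl2, either without or with constant ligand. Apparent KD reflects the per-design median of normalised cluster binding-curve fits.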

MS2 coat protein [2] = test: apparent KD of MS2 coat protein, switch OFF state (with FMN for OFF switches, without FMN for ON switches); designed switch direction (-1 OFF switch, 1 ON switch): 1; higher = weaker reporter binding; details: FMN input: 0 or 200 uM; Eterna round: R93 (includes R88 designs)
Outline: as §1

Sequence	apparent KD of MS2 coat protein (MS2 coat protein [1]) [nM]	apparent KD of MS2 coat protein (MS2 coat protein [2]) [nM]
AAACCACAUGAGGAUCACCCAUGUAAAAAUAUGGGAGGAUAUCGGAAUAAAAUAAAGAAACGAGAAGGCCUAAAAG [59%, Flamingo, 4]	69.3	292
AAACCACAUGAGGAUCACCCAUGUCCAAAAAAACAAGGAUAUAUAAAAAAAAAAAAAAAAAUAGAAGGUGUAAAAA [<insert title here>]	75.5	113
AAACUGGAGGACAAGGAUAUGUGCUCUACGACAUGAGGAUCACCCAUGUGAGACGUAGUAGUGAAACAGAAGGUGUCCUAUUGUA [Tiarri]	11	20.4
AAAGAAAAACUAGAGGAUAUCCGAAUGGUAACAUGAGGAUCACCCAUGUGAAGAAAGGAACAUGAGGAGAAGGCUAGAAGAAAAA [JL Nando mod 10]	18.8	23.4
AAAGAAAAACUAGAGGAUAUCCGAGUGGUAACAUGAGGAUCACCCAUGUGACGAAAGGAACAUGAGGAGAAGGCUAGAAGAAAAA [JL Nando mod 9]	46.3	315
AAAGAAAAACUAGAGGAUAUCUGAGUGGUAACAUGAGGAUCACCCAUGUGAAGAAAGGAGCAUGAGGAGAAGGCUAGAAGAAAAA [JL Nando mod 22]	11.7	59
AAAGACGUGCAUCAGGAUAUGUUCCGAGACACAUGAGGAUCACCCAUGUGGACGAAGUCUCGGGCACAGAAGGGAUCACUCAUAA [Latibe]	15.4	21.4
AAAUAAAGGACUAAGGAUAUAUCACAUGAAACAUGAGGAUCACCCAUGUAAUAAUACAAAGGGUGAUAGAAGGUAGUCCACAAACA [Pariah 5 (MS2 Riboswitches - Same State 2)]	14.9	37.1
AAAUAAAUAAAAAAGGAUAUAAAAAAGUACACAUGAGGAUCACCCAUGUGUACACAUGGGUGAUCCUAGAAGGAAAAAUAAAAAA [SS2: 91 No MS2]	117	73.3
AAAUAAAUGACUAAGGAUAUAUCAUAAGAAACAUGAGGAUCACCCAUGUAAUAAUAAAAAGGGUGAUAGAAGGUAGUCAACAAAC [74%, More Paria 4]	19.8	114
AAAUAAAUGACUAAGGAUAUCUCAGAGAAAACAUGAGGAUCACCCAUGUAAUAAUAACAUGUGUGAGAGAAGGUAGUCAACAAAC [Same State 2.4 (Pariah 4 -changed stack on 9nt hairpin)]	16.1	70.1
AAAUAAAUGACUCAGGAUAUAUCAGAGAAAACAUGAGGAUCACCCAUGUAAUAAUAACAUGUGUGGUAGAAGGGAGUCAAUAAAU [LROPPY Same State 2 - v03_deltaG=2.1]	13.5	49.3
AAAUAAAUGACUCAGGAUAUAUCAUAGAAAACAUGAGGAUCACCCAUGUAAUAAUAACAUGUUUGGUAGAAGGGAGUCAAUAAAU [LROPPY Same State 2 - v04_deltaG=1.25]	31.1	18.6
AAAUAAAUGACUCAGGAUAUAUCAUAGGGUACAUGAGGAUCACCCAUGUUUUAAUAACAUGUUUGGUAGAAGGGAGUCAAUAAAU [LROPPY Same State 2 - v07_deltaG=1.69]	85.1	133
AAAUAAAUGACUGAGGAUAUAUCGAUGAGUACAUGAGGAUCACCCAUGUGUUAAUAAAAAGGGUGGUAGAAGGUAGUCAACAAAC [Mod 15 of Pariah 4 by Hyphema in Round 1]	112	51.2
AACAAUCUAUCUGAGGAUAUCAUGACAAAGACAUGAGGAUCACCCAUGUACCAGGAAACUGGUUAUGAGAAGGCAGAUAGAUUGA [SS2: 1117]	11.5	18.8
AACAGACAUGAGGAUCACCCAUGUAGAAUUAUGGGAGGAUAUACAAAGACGAGAGUCAGAGUAGAAGGCCUAGGAA [salish99-ss1-165]	22	89.7
AACAUACAUGAGGAUCACCCAUGUUCCGGCAGGACAGGAUAUACAUCGAAAGUGUUAUAAGUAGAAGGGUCAUAAA [JR_SS001_Sub012]	56.7	66.5
AACCAACAUGAGGAUCACCCAUGUCAACCCAAGCGAGGAUAUCCGAGAAUAACAAUGGGAGGAGAAGGCGCGACCU [ss1]	38.1	39
AACUAACAUGAGGAUCACCCAUGUAAUCAAACAUGAGGAUAUAUAACACAUCAUCAACAGAUAGAAGGCAUAAAUA [JR_SS001_Sub1203]	80.4	62.7
AAGAAACAUGAGGAUCACCCAUGUAAGAUUAUGGGAGGAUAUGCGAAAAGAAACAAAGAAGCAGAAGGCCUAAGAA [75%, Ex5 sub 1, 4]	15.7	77.3

Sequence	apparent KD of MS2 coat protein (MS2 coat protein [1]) [nM]	apparent KD of MS2 coat protein (MS2 coat protein [2]) [nM]
AAGAAACAUGAGGAUCACCCAUGUAGAAACAUGGGAGGAUAUACAAAGACGAAAGUCAAAGUAGAAGGCCUAAAAA [Mat - Same State 1 - Mod - D165]	88.6	141
AAGUCACAUGAGGAUCACCCAUGUCGUAAACGAUGAGGAUAUAGGAAAAAAAAAAAAAAACUAGAAGGUAUAACAA [SameState1-01]	35	38.5
AAUAAACAUGAGGAUCACCCAUGUAGAAAUAUGGGAGGAUAUACAAAGACGAAAGUCAAAGUAGAAGGCCUAAUAA [Mat - Same State 1 - Mod - D153]	18	58.5
AAUAAUUAUAUGGAGGAUAUCCGUAAUAAGACAUGAGGAUCACCCAUGUAAUAAGGUUAAAUAAAGGAGAAGGCCAAGGGUGAAA [JR_SS002_Sub004]	129	344
AAUACACAUGAGGAUCACCCAUGUAGAAAGAAGUCAGGAUAUCCGAUCCACAUGUGAUAAGGAGAAGGGACAAUAA [SS 1 Tesla 8]	19.6	95.4
AAUAUACAUGAGGAUCACCCAUGUUUUAAUAACUCAGGAUAUACGGGUGAAAACAGCAUAGUAGAAGGGAGAAAAA [SameState1 Malc#2]	44	113
AAUAUACAUGAGGAUCACCCAUGUUUUAAUAGCUGAGGAUAUACGGGUGAAAACAGCAUAGUAGAAGGCGGGUGUA [SameState1 Malc#8]	99.6	115
AAUGAACAUGAGGAUCACCCAUGUUCUAAUAGUUGAGGAUAUAUGGGUGAAAAUAGCACAGUAGAAGGCGAGUGUA [SameState1 Malc#17]	408	262
AGAAAGAAAAGAGAGGAUAUCUAAAAGAAAACAUGAGGAUCACCCAUGUAAAAGAAAAGAAAAUGGGAGAAGGCUUAUGAGAAAG [JL Skelter Mod 8 In the Red]	107	82
AGAAAUAAAACACAGGAUAUCCAAAAUAAAACAUGAGGAUCACCCAUGUAAAGAAAAGAAAAAUGGGAGAAGGGUGAAAAUAAGA [Mat - Same State 2 - JL mod - D19]	19.4	69.7
AGAAAUAAAAGAGAGGAUAUGCAAAAGAUAACAUGAGGAUCACCCAUGUAAAAGAAAAUAAAUGGGUAGAAGGCUCAAAAUAAGA [Jieux modified]	86.4	64.9
AGAAAUAAAAGAGAGGAUAUUCAAAAAGGGACAUGAGGAUCACCCAUGUAAAAGAAAAUAAAAUGGGAGAAGGCUCUAAAUAAAG [80%, More Helter Skelter 2]	86.6	127
AGAAAUAAAGCGAAGGAUAUCCAAACCUAAACAUGAGGAUCACCCAUGUAAAAGAAAAUAAAAUGGGAGAAGGUCGCAAAUAAGA [Designing denovo 14]	13.5	22.8
AGAAGACAUGAGGAUCACCCAUGUGGGAUUAUGGGAGGAUAUACAAAGACGAGAGUCAGAGUAGAAGGCCUAGGAA [salish99-ss1-112(!!!!!)]	29	70.5
AGAAUAAAAAGACAGGAUAUCCAAAAAAAAACAUGAGGAUCACCCAUGUAAAAAAAAUAAAAAUGGGAGAAGGGUCAAAAUAAGA [Mat - Same State 2 - JL mod - D64]	19.9	35.9
AGACAUAAAAGAGAGGAUAUCCAAAAGAAAACAUGAGGAUCACCCAUGUGAAAGAAAAUAAAAUGGGAGAAGGCUCACAUACAGA [Topaz 36]	14.1	27.4
AGCAUCACCAGUCAGGAUAUGUAGGCCUUGACAUGAGGAUCACCCAUGUGGACGAAACACCGGCCACAGAAGGGAUUGUAAAUAA [Ries]	434	67.4
AGCGAACAUGAGGAUCACCCAUGUCCCGCGAAUCAAGGAUAUGGGCAGAUGAGUCCUGCGCCAGAAGGUGAGUAAA [Rigeesar]	49.6	132
AGCGAACAUGAGGAUCACCCAUGUGAAAAACAUAGAGGAUAUGUCGCAUGAGUGUAAAAGACAGAAGGCUAUCGCA [Mod of Nando]	38.8	116
AGGAAACAUGAGGAUCACCCAUGUAAAAAAUGGGUAGGAUAUGCGAAAAGAAAAAGAAAAGCAGAAGGGCCAAGAA [62%, Something completely different, 3]	46	444
AGGAAACAUGAGGAUCACCCAUGUAAGAUAAACACAGGAUAUGCGAAAAGAAACAAAGAAGCAGAAGGGUGGAGAA [75%, Ex5 sub 1, 3]	19.4	25.1
